Assay [1] addresses T1, peptide 21 (PfCSP residues 101-115) (Plasmodium falciparum).
T1 chain: NPDPNANPNVDPNAN
Put plainly: crystal structure.

For assay [2], the target named is T2, Biotinylated junctional peptide NPDP19 (Plasmodium falciparum NF54/3D7).
T2 chain: Biotin-KQPADGNPDPNANPNVDPN
Put plainly: BLI.

For assay [3], the target named is T2, Biotinylated junctional peptide NPDP19. Nature of the assay: AlphaScreen or HTRF. On the technique in general: In Alpha technology, singlet oxygen from a donor bead excites a nearby acceptor bead.
For assay [4], the target named is T3, peptide NANP5, biotinylated (Plasmodium falciparum, biotin (position not given)).
T3 chain: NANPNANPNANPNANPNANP
Put plainly: BLI. (In general: Biolayer interferometry detects binding as a change in optical thickness at a sensor tip.)

The next assay deals with T4, peptide 21, biotinylated (Plasmodium falciparum NF54/3D7, also: biotin, position not given here).
T4 chain: NPDPNANPNVDPNAN
Nature of the assay: BLI.

Where no end group is shown, it is not given here. The star is where a group is joined. Biotin = O=C1N[C@H]2[C@H](CS[C@H]2CCCCC(=O)*)N1

For orientation: Kd means a measure of binding affinity in units of concentration.

B1: iGL-CIS43.D3 Fab (Fab, V domains shown)
VH: QVHLVQSGAEVKKPGASVKVSCKASGYTFTRYAIHWVRQAPGQRLEWMGWIKGGNGNTRYSQKFQDRVTITRDTSASTAYMELSSLRSEDTAVYYCALLTVITPDDAFDIWGQGTMVTVSS
VL: not shown
Turning to B1, in assay [1], the binding result is listed as “binds”. Also, in assay [2], binding was characterised by a dissociation constant (Kd) of 1.01 nM.

B2: iGL-CIS43-HL.K28.m42.127 Fab (Fab, V domains shown)
VH: QVQLVQSGAEVKKPGASVKVSCKASGYTFTSYAIHWVRQAPGQRLEWMGWIKAGNGNTRYSQKFQDRVTITRDTSASTAYMELSSLRSEDTAVYYCALLTVITPDDTFDIWGQGTMVTVSS
VL: not shown
B2: in assay [1], the binding result was “binds”.

B3: iGL_Core8 with the reversion R58K in the heavy chain (antibody, V domains shown)
VH: QVQLVQSGAEVKKPGASVKVSCKASGYTFTSYAIHWVRQAPGQRLEWMGWIKAGNGNTKYSQKFQGRVTITRDTSASTAYMELSSLRSEDTAVYYCALLTVITPDDAFDIWGQGTMVTVSS
VL: not shown
With B3, in assay [3], the binding result is reported as “binds”.

B4: iGL_Core8 with the reversion I34M in the heavy chain (antibody, V domains shown)
VH: QVQLVQSGAEVKKPGASVKVSCKASGYTFTSYAMHWVRQAPGQRLEWMGWIKAGNGNTRYSQKFQGRVTITRDTSASTAYMELSSLRSEDTAVYYCALLTVITPDDAFDIWGQGTMVTVSS
VL: not shown
Consider B4, for which the binding result in assay [3] is on record as “binds”.

B5: iGL_Core8 with the reversion K52N in the heavy chain (antibody, V domains shown)
VH: QVQLVQSGAEVKKPGASVKVSCKASGYTFTSYAIHWVRQAPGQRLEWMGWINAGNGNTRYSQKFQGRVTITRDTSASTAYMELSSLRSEDTAVYYCALLTVITPDDAFDIWGQGTMVTVSS
VL: not shown
For B5, the binding result in assay [3] was “binds”.

B6: iGL_Core8 with the reversion S94T in the light chain (antibody, V domains shown)
VH: QVQLVQSGAEVKKPGASVKVSCKASGYTFTSYAIHWVRQAPGQRLEWMGWIKAGNGNTRYSQKFQGRVTITRDTSASTAYMELSSLRSEDTAVYYCALLTVITPDDAFDIWGQGTMVTVSS
VL: not shown
On to B6, for which the binding result in assay [3] is “binds”.

B7: iGL_Core8 with the reversion I98V in the heavy chain (antibody, V domains shown)
VH: QVQLVQSGAEVKKPGASVKVSCKASGYTFTSYAIHWVRQAPGQRLEWMGWIKAGNGNTRYSQKFQGRVTITRDTSASTAYMELSSLRSEDTAVYYCALLTVVTPDDAFDIWGQGTMVTVSS
VL: not shown
Regarding B7, in assay [3], the binding result is listed as “binds”.

B8: iGL-CIS43-HL.K28.m43.151 Fab (Fab, V domains shown)
VH: QVHLVQSGAEVKKPGASVKVSCKASGYTFTSYAIHWVRQAPGQRLEWMGWIKGGNGNTRYSQKFQDRVTITRDTSASTAYMELSSLRSEDTAVYYCALLTVITPDDAFDIWGQGTMVTVSS
VL: not shown
For B8, the binding result in assay [1] is recorded as “binds”.

B9: mature CIS43 Fab (Fab, V domains shown)
VH: QVQLVQSGAEVKKPGASVKVSCKASGYTFTSYAIHWVRQAPGQRLEWMGWIKAGNGNTRYSQKFQDRVTITRDTSTTTAYMELSSLRSEDTAVYYCALLTVLTPDDAFDIWGQGTMVTVSS
VL: not shown
As for B9, the binding result is reported as “binds” in assay [4] and “binds” in the assay with peptide 21, biotinylated.

The values above are taken from publication PMC9087378 (Immunity, 2021).
